Laboratory results reported in publication PMC11741350.

What was measured:
[1] = target: HA-RNF25 mutant lacking the Proline-Rich domain (human); test: co-IP
[2] = target: HA-RNF25 mutant lacking the RING+L+U5BR domains (human); test: co-IP

REV7, sequence (Q9UI95 whole entry): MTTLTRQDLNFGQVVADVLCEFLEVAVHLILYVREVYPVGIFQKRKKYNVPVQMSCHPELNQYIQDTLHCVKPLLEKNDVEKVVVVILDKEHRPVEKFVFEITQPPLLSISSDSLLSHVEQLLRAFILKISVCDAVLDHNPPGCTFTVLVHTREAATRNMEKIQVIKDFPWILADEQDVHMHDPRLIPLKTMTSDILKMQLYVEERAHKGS

How did the fold reduction of co-precipitated REV7 against wild-type HA-RNF25 [1] turn out when “REV7 (from UniProt Q9UI95 1-211) (natural protein)” was run?
Its fold reduction of co-precipitated REV7 against wild-type HA-RNF25 is 3.13 fold.

What about the fold reduction of co-precipitated REV7 against wild-type HA-RNF25 [2] of the same substance?
The fold reduction of co-precipitated REV7 against wild-type HA-RNF25 was 2.33 fold.
